Measurements taken from the supplement of paper PMC9112550, “Optimization of the antimicrobial peptide Bac7 by deep mutational scanning” (BMC Biology, 2022).

Test system: Escherichia coli TOP10
Assay: shrunken log2 fold change of peptide-encoding DNA abundance (4.5 h post-induction vs induction); higher = less antimicrobial activity (less host growth inhibition)
Conditions: time post-induction: 4.5 h; library: site-saturation at positions 5, 18, 19, 20
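Also: peptides expressed intracellularly from a pBAD plasmid library in pooled LB shake-flask culture, induced with 0.3% L-arabinose, DNA abundance read by NGS, three biological replicates, DESeq2 with apeglm shrinkage.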

Row | Sequence | shrunken log2 fold change
1 | RRIRMRPPRLPRPRPRPEDYPRP | 1.06
2 | RRIRIRPPRLPRPRPRPPVNPRP | -0.456
3 | RRIRRRPPRLPRPRPRPMGMPRP | 0.747
4 | RRIRPRPPRLPRPRPRPNQHPRP | -0.43
5 | RRIRKRPPRLPRPRPRPWKIPRP | -0.00192
6 | RRIRKRPPRLPRPRPRPQYFPRP | -0.0337
7 | RRIRFRPPRLPRPRPRPISEPRP | -0.0674
8 | RRIRLRPPRLPRPRPRPRSQPRP | 0.19
9 | RRIRDRPPRLPRPRPRPLCLPRP | 0.0562
10 | RRIRERPPRLPRPRPRPTQTPRP | -0.00311
11 | RRIRGRPPRLPRPRPRPAKTPRP | 0.121
12 | RRIRDRPPRLPRPRPRPRNDPRP | -0.461
13 | RRIRRRPPRLPRPRPRPDKEPRP | 0.0257
14 | RRIRIRPPRLPRPRPRPIHYPRP | -0.791
15 | RRIRDRPPRLPRPRPRPHDCPRP | -0.0662
16 | RRIRLRPPRLPRPRPRPNGFPRP | -0.27
17 | RRIRIRPPRLPRPRPRPRRSPRP | 0.347
18 | RRIRNRPPRLPRPRPRPPMYPRP | -0.25
19 | RRIRLRPPRLPRPRPRPWYLPRP | -0.759
20 | RRIRERPPRLPRPRPRPDMCPRP | 0.00902

Row | Sequence | shrunken log2 fold change
21 | RRIRVRPPRLPRPRPRPGYDPRP | -0.422
22 | RRIRFRPPRLPRPRPRPRYFPRP | 0.0373
23 | RRIRERPPRLPRPRPRPEPHPRP | -0.122
24 | RRIRRRPPRLPRPRPRPKRAPRP | 0.52
25 | RRIRHRPPRLPRPRPRPKCLPRP | -0.25
26 | RRIRTRPPRLPRPRPRPHDQPRP | 0.0187
27 | RRIRLRPPRLPRPRPRPKAYPRP | -0.402
28 | RRIRGRPPRLPRPRPRPSDKPRP | 0.0485
29 | RRIRLRPPRLPRPRPRPRRTPRP | 0.354
30 | RRIRCRPPRLPRPRPRPCWMPRP | -0.404
31 | RRIRGRPPRLPRPRPRPWRGPRP | 0.228
32 | RRIRWRPPRLPRPRPRPHKMPRP | -0.146
33 | RRIRSRPPRLPRPRPRPEIAPRP | 0.00181
34 | RRIRTRPPRLPRPRPRPRVAPRP | 0.258
35 | RRIRNRPPRLPRPRPRPWRNPRP | 0.0352
36 | RRIRFRPPRLPRPRPRPSAWPRP | 0.534
37 | RRIRTRPPRLPRPRPRPAEMPRP | -0.253
38 | RRIRVRPPRLPRPRPRPAYLPRP | 0.0246
39 | RRIRSRPPRLPRPRPRPFPQPRP | -0.201
40 | RRIRKRPPRLPRPRPRPWGGPRP | 0.407

Row | Sequence | shrunken log2 fold change
41 | RRIRWRPPRLPRPRPRPDHDPRP | 0.0812
42 | RRIRPRPPRLPRPRPRPWDEPRP | -0.151
43 | RRIRNRPPRLPRPRPRPRNKPRP | -0.107
44 | RRIRKRPPRLPRPRPRPFLPPRP | -0.0487
45 | RRIRQRPPRLPRPRPRPCMFPRP | -0.214
46 | RRIRHRPPRLPRPRPRPQVLPRP | -0.0535
47 | RRIRTRPPRLPRPRPRPEGVPRP | 0.122
48 | RRIRPRPPRLPRPRPRPVVPPRP | 0.134
49 | RRIRDRPPRLPRPRPRPPPHPRP | 0.623
50 | RRIRPRPPRLPRPRPRPIETPRP | 0.0267
51 | RRIRHRPPRLPRPRPRPNVTPRP | -0.0118
52 | RRIRHRPPRLPRPRPRPSIRPRP | -0.345
53 | RRIRERPPRLPRPRPRPPTVPRP | 0.166
54 | RRIRNRPPRLPRPRPRPENVPRP | -0.123
55 | RRIRKRPPRLPRPRPRPWVVPRP | 0.423
56 | RRIRFRPPRLPRPRPRPWGDPRP | 0.00532
57 | RRIRWRPPRLPRPRPRPPCIPRP | 0.0939
58 | RRIRPRPPRLPRPRPRPKYMPRP | 1.72
59 | RRIRRRPPRLPRPRPRPHSPPRP | 0.252
60 | RRIRWRPPRLPRPRPRPPTAPRP | 0.876
